Experimental data taken from patent publication US20230416394A1.
pEC50, pIC50, pKd: −log10 of the molar value.

Experiments:
[1] = biological target: human TGFβ1 (human) (UniProt P01137); assay: ELISA, blocking of TGFβRII-His binding to coated TGFβ1
[2] = biological target: human CD39 protein (Octet assays) (human); assay: Octet, ES014-1 on sensor, CD39 protein gradient
[3] = biological target: human TGFβ1 (human) (UniProt P01137); assay: Octet, ES014-1 on sensor, TGFβ gradient
[4] = biological target: human CD39 (human) (UniProt P49961); assay: cell-based or functional assay
[5] = biological target: human TGFβ1 (human) (UniProt P01137); assay: ELISA, coated human TGFβ1

human TGFβ1 (human), sequence (P01137 279-390 limits assumed): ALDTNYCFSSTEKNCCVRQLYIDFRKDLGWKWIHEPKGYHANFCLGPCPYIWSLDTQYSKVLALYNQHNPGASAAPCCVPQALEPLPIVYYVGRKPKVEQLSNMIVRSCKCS
human CD39 (human), sequence (P49961 whole entry): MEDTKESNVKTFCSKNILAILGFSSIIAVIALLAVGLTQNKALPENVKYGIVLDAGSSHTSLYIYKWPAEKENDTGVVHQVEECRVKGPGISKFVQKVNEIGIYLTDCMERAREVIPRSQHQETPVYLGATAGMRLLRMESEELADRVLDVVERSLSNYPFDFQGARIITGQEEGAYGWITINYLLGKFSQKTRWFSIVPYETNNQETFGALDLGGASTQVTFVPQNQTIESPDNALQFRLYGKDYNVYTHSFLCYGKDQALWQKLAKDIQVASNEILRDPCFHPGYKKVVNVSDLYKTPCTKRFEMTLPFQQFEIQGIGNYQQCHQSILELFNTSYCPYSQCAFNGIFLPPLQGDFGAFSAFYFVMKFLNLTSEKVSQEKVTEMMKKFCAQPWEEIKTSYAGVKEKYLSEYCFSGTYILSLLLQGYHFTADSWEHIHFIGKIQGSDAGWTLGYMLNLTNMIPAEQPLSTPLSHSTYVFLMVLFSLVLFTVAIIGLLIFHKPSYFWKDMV

ES014-1 (bispecific antibody)
pIC50 [1]: 8.43
pKd [2]: 9.42
koff [2]: 3.44e-05 s⁻¹
kon [2]: 91400 M⁻¹ s⁻¹
pKd [3]: 10.43
koff [3]: 0.000234 s⁻¹
kon [3]: 6.32e+06 M⁻¹ s⁻¹
IC50 to CD39 ATPase activity on MOLP-8 cells (CellTiterGlo) [4]: 1210 pM
pEC50 [5]: 9.59
